Data taken from patent US10314894B2, “Treatment of cardio-renal disease using PCSK6” (THE CLEVELAND CLINIC FOUNDATION, priority 2014, dated 2019).

What was measured:
corin mutant K317E = target: T1, corin mutant K317E (Homo sapiens, UniProt Q9Y5Q5, K317E); test: PCSK6-mediated corin activation in HEK293 cells, corin mutant K317E; assay type: cell-based; conditions: Western, densitometry
T1 construct: expressed in transfected cells; host or cells: HEK293
T1 sequence (Q9Y5Q5 1-1042 K317E): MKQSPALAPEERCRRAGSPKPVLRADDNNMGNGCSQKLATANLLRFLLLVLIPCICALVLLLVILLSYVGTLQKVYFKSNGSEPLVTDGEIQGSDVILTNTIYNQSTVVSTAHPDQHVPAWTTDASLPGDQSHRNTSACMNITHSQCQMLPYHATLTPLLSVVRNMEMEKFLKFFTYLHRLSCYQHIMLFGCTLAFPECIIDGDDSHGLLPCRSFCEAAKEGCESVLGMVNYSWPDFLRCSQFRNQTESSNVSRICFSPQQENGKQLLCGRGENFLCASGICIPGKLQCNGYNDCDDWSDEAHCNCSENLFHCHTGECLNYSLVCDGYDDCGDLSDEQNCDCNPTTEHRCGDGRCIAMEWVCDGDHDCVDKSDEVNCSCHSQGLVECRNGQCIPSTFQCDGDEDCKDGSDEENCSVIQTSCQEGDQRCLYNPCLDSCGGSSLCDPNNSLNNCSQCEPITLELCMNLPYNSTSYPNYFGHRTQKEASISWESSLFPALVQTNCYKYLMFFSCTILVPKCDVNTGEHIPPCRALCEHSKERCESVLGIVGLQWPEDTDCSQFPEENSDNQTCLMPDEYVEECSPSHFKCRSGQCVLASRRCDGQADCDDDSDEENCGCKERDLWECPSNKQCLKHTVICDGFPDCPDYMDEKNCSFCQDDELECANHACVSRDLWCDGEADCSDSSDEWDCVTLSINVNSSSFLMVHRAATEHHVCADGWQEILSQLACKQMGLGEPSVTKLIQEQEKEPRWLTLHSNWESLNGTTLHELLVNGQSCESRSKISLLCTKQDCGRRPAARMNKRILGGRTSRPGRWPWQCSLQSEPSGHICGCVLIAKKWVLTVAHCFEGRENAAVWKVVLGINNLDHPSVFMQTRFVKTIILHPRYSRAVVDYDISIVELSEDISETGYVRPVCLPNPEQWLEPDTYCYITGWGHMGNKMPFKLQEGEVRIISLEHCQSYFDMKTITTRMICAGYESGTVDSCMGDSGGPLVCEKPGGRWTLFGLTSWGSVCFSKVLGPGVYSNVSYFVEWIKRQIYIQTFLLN
Description: (§1) Plasmids expressing human corin WT and mutants R801A, S985A, T555I, Q568P, T555I/Q568P, K317E, S472G and R539C were reported previously. Dong, N. et al., J Biol Chem 289, 17909-17916 (2014); Knappe et al., J Biol Chem 278, 52363-52370 (2003); Wu et al., J Biol Chem 277, 16900-16905. (2002). Plasmids expressing human PCSK1-9 were made by cloning respective cDNAs into pcNDA3.1 vector. Recombinant corin and PCSK proteins encoded by these plasmids contained a C-terminal V5 or flag tag for protein detection in Western blotting.
(§2) HEK293 and HL-1 cells were transfected with corin or PCSK6 expression plasmids. After 48-72 h, cells were lysed in a buffer containing 25 mM Tris-HCl, pH 7.4, 150 mM NaCl, 1 mM EDTA, 1% (v/v) NP-40, and 1% (v/v) protease inhibitor cocktail. Recombinant corin and PCSK6 proteins were immunoprecipitated with an anti-V5 or anti-flag antibody. Western blotting was carried out to analyze corin expression and activation or PCSK6 expression with or without reducing agents. Percentage of corin activation (corin-p vs. corin fragments) was quantified by densitometric analysis of Western blots.

corin variant T555I = target: T2, corin variant T555I (Homo sapiens, UniProt Q9Y5Q5, T555I); test: PCSK6-mediated corin activation in HEK293 cells, corin variant T555I; assay type: cell-based; conditions: Western
T2 construct: expressed in transfected cells; host or cells: HEK293
T2 sequence (Q9Y5Q5 1-1042 T555I): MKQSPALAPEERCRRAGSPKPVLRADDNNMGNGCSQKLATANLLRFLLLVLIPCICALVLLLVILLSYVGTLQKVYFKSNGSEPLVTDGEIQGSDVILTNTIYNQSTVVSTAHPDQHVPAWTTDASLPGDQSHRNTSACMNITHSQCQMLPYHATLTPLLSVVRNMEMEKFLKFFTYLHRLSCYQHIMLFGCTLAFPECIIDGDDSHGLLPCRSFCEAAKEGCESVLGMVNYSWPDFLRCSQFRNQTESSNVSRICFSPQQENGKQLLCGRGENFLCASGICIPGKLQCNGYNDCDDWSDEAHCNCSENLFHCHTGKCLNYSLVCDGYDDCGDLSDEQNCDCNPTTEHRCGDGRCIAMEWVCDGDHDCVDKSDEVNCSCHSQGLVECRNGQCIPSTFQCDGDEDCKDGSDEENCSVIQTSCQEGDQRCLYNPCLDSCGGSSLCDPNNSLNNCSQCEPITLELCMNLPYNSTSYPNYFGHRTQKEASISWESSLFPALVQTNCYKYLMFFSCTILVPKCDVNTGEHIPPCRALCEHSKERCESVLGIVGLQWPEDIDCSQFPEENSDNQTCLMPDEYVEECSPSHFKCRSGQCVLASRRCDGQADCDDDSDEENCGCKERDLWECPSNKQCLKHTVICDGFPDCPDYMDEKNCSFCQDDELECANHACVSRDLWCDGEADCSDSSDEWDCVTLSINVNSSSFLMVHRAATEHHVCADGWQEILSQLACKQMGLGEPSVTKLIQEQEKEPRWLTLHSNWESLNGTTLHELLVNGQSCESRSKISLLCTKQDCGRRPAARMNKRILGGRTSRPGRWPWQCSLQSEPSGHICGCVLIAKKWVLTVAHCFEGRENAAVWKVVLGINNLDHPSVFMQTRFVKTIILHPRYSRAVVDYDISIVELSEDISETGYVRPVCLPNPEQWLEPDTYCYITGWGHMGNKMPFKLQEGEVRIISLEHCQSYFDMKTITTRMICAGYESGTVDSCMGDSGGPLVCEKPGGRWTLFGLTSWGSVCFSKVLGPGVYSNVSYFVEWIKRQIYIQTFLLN
Description: as §1, §2

- reduction in PCSK6-mediated corin activation compared with WT corin (corin mutant K317E): 39%
- PCSK6-mediated activation cleavage (corin variant T555I): detected
B1: proprotein convertase subtilisin/kexin-6 (protein, listed as Homo sapiens)
chain: MPPRAPPAPGPRPPPRAAAATDTAAGAGGAGGAGGAGGPGFRPLAPRPWRWLLLLALPAACSAPPPRPVYTNHWAVQVLGGPAEADRVAAAHGYLNLGQIGNLEDYYHFYHSKTFKRSTLSSRGPHTFLRMDPQVKWLQQQEVKRRVKRQVRSDPQALYFNDPIWSNMWYLHCGDKNSRCRSEMNVQAAWKRGYTGKNVVVTILDDGIERNHPDLAPNYDSYASYDVNGNDYDPSPRYDASNENKHGTRCAGEVAASANNSYCIVGIAYNAKIGGIRMLDGDVTDVVEAKSLGIRPNYIDIYSASWGPDDDGKTVDGPGRLAKQAFEYGIKKGRQGLGSIFVWASGNGGREGDYCSCDGYTNSIYTISVSSATENGYKPWYLEECASTLATTYSSGAFYERKIVTTDLRQRCTDGHTGTSVSAPMVAGIIALALEANSQLTWRDVQHLLVKTSRPAHLKASDWKVNGAGHKVSHFYGFGLVDAEALVVEAKKWTAVPSQHMCVAASDKRPRSIPLVQVLRTTALTSACAEHSDQRVVYLEHVVVRTSISHPRRGDLQIYLVSPSGTKSQLLAKRLLDLSNEGFTNWEFMTVHCWGEKAEGQWTLEIQDLPSQVRNPEKQGKLKEWSLILYGTAEHPYHTFSAHQSRSRMLELSAPELEPPKAALSPSQVEVPEDEEDYTAQSTPGSANILQTSVCHPECGDKGCDGPNADQCLNCVHFSLGSVKTSRKCVSVCPLGYFGDTAARRCRRCHKGCETCSSRAATQCLSCRRGFYHHQEMNTCVTLCPAGFYADESQKNCLKCHPSCKKCVDEPEKCTVCKEGFSLARGSCIPDCEPGTYFDSELIRCGECHHTCGTCVGPGREECIHCAKNFHFHDWKCVPACGEGFYPEEMPGLPHKVCRRCDENCLSCAGSSRNCSRCKTGFTQLGTSCITNHTCSNADETFCEMVKSNRLCERKLFIQFCCRTCLLAG
modifications: C-terminal FLAG tag
